Assay results published in ChEMBL document CHEMBL2311350, “Discovery of a novel phenylethyl benzamide glucokinase activator for the treatment of type 2 diabetes mellitus” (Bioorg Med Chem Lett, 2013).

Target: Glucokinase (Homo sapiens)
Experiment: Induction of human pancreatic glucokinase activity assessed as maximal reaction rate at 5 mM glucose concentration

B1: Hexokinase-4 (Homo sapiens), P35557 (protein)
chain: MLDDRARMEAAKKEKVEQILAEFQLQEEDLKKVMRRMQKEMDRGLRLETHEEASVKMLPTYVRSTPEGSEVGDFLSLDLGGTNFRVMLVKVGEGEEGQWSVKTKHQMYSIPEDAMTGTAEMLFDYISECISDFLDKHQMKHKKLPLGFTFSFPVRHEDIDKGILLNWTKGFKASGAEGNNVVGLLRDAIKRRGDFEMDVVAMVNDTVATMISCYYEDHQCEVGMIVGTGCNACYMEEMQNVELVEGDEGRMCVNTEWGAFGDSGELDEFLLEYDRLVDESSANPGQQLYEKLIGGKYMGELVRLVLLRLVDENLLFHGEASEQLRTRGAFETRFVSQVESDTGDRKQIYNILSTLGLRPSTTDCDIVRRACESVSTRAAHMCSAGLAGVINRMRESRSEDVMRITVGVDGSVYKLHPSFKERFHASVRRLTPSCEITFIESEEGSGRGAALVSAVACKKACMLGQ
**Q.** How did the Vmax turn out when B1 was run?
**A.** 130%
